Patent US20200289563A1 (WUXI BIOLOGICS IRELAND, published 2020)
Positions count from the first letter of the chain named.

T1: human CD19 (human, UniProt P15391 20-556)
T1 sequence (looked up): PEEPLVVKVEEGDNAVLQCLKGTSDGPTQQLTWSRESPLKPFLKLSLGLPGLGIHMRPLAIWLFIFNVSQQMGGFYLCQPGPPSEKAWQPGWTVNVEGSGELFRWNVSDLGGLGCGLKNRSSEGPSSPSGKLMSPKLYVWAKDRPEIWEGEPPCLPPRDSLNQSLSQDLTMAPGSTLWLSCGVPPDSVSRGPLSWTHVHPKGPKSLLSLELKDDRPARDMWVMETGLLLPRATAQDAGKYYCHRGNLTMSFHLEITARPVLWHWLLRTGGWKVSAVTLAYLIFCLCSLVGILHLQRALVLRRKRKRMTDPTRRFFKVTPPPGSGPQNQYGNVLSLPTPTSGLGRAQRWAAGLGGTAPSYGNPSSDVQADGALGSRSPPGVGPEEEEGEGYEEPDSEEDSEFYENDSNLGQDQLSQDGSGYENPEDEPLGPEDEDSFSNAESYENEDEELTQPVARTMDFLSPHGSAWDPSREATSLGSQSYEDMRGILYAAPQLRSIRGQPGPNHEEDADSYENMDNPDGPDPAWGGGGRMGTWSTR

T2: cynomolgus monkey CD19 (cynomolgus monkey, UniProt A0A2K5W8L9 20-557)
T2 construct: whole, on cells; also called cyno CD19; cPro1
T2 sequence: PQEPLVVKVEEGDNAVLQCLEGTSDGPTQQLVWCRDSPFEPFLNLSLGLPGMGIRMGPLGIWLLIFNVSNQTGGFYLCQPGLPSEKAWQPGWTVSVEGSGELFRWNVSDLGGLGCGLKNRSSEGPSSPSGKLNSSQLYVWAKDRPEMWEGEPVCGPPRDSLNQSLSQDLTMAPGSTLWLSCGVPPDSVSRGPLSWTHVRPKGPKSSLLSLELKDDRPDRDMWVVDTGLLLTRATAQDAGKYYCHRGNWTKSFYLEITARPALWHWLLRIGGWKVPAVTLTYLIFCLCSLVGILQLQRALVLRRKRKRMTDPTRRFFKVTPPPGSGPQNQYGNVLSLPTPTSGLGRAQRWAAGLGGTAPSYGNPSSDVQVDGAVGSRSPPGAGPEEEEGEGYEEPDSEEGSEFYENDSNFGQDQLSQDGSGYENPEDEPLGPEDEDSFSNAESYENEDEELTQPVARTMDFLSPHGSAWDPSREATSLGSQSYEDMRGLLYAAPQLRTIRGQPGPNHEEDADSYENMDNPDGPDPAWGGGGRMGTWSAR

B1: WBP7011-4.100.1 (antibody, V domains shown)
VH: EVQLQQSGPELVKPGASVKMSCKASGYTFTSYVIHWVKQKPGQGLEWIGYINPYNDGAEYTEKFKGKATLTSDKSSSTAYMELSSLTSEDSTVYYCARGPYYYGGSPFDYWGQGTTLTVSS
VL: DAVMTQTPLSLPVSLGDQASISCRSSQSLENSNGNTYLNWYLQKPGQSPQLLIYRVSNRFSGVLDRFSGSGSGTDFTLKISRVEAEDLGVYFCLQVTHVPYTFGGGTKLEIK
notes: also called W7011-4.100.1
B2: WBP7011-4.15.10 (antibody, V domains shown)
VH: B1 VH with I34M, V37M, A58T, T61H, T92A, Y94F, Y110F
VL: B1 VL
notes: also called W7011-4.15.10
B3: WBP7011-4.34.11 (antibody, V domains shown)
VH: B1 VH with S31N, I51F, A58T, T61N, G66A, T92A, R98K, G105S
VL: B1 VL
B4: WBP7011-4.106.3 (antibody, V domains shown)
VH: B1 VH with T30S, T61A, T78S, S84G, T92A
VL: B1 VL
notes: also called W7011-4.106.3
B5: WBP7011_4.56.1 (antibody, V domains shown)
VH: B1 VH with S31N, A58T, T61N, K74T, E82A, T92A, A97T
VL: B1 VL
notes: also called W7011-4.56.1
B6: WBP7011_4.108.3 (antibody, V domains shown)
VH: B1 VH with K19E, V37L, T61N, E82D, S84N, T92A, G105S
VL: B1 VL
notes: also called W7011-4.108.3
B7: WBP7011_4.191.6 (antibody, mouse IgG1, V domains shown)
VH: B1 VH with Q5L, S31D, K40R, A58S, T61S, T92A
VL: B1 VL
notes: Mouse monoclonal from hybridoma; isotype printed only for the sister subclone 4.191.3 (mouse IgG1, kappa); also called W7011-4.191.6
B8: WBP7011_4.194.10 (antibody, V domains shown)
VH: B1 VH with I34M, A58T, E59K, T61N, T92A, G105S
VL: B1 VL with S28T, A85T
notes: also called W7011-4.194.10
B9: WBP7011_4.231.5 (antibody, V domains shown)
VH: B1 VH with I34M, A58T, E59Q, T61N, T92A, G104S, G105P
VL: B1 VL
notes: also called W7011-4.231.5
B10: WBP7011_4.155.8 (antibody, V domains shown)
VH: EIQLQQSGPELVKPGASVKVSCKASGYAFTSYNMYWVKQSHGKSLEWIGYIDPYNGDTTYNQKFKGKATLTVDKSSSTAYMHLNSLTSEDSAVYYCLTTAYAMDYWGQGTSVTVSS
VL: QIVLTQSPAIMSASLGEEITLTCSASSTVNYMHWYQQKSGTSPKLLIYSTSNLASGVPSRFSGSGSGTFYSLTIRSVEAEDAADYYCHQWSSYPYTFGGGTKLEIK
B11: WBP7011_4.202.9 (antibody, mouse IgG2a, V domains shown)
VH: B10 VH
VL: B10 VL
notes: also called W7011-4.202.9
B12: WBP7011_4.225.7 (antibody, mouse IgG2a, V domains shown)
VH: B10 VH
VL: B10 VL
notes: also called W7011-4.225.7
B13: WBP7011-4.87.6 (antibody, V domains shown)
VH: QVQLQQSGAELVRPGSSVKISCKASGYAFSTYWMNWVKQRPGQGLEWIGQIYPGDDDTKYNGKFKGKASLTADKSSSTAYMQLISLTSEDSAVYFCARRYFRYDYWYSDVWGAGTTVTVTS
VL: DIQMTQTTSSLSASLGDRVTISCRASQDISNYLNWYQQKPDGTVKLLIYYTSRLHSGVPARFSGSGSGTDYSLTISNLEQEDIATYFCHQGNTLPLTFGAGTKLELK
B14: WBP7011-4.34.11-z1-m5-IgG1k (antibody, V domains shown)
VH: QVQLVQSGAEVKKPGSSVKVSCKASGYTFTDYVIHWVRQAPGQGLEWMGYFNPYNDGTEYNEKFKARVTITADKSTSTAYMELSSLRSEDTAVYYCARGPYYYGSSPFDYWGQGTTVTVSS
VL: DIVMTQTPLSLPVTPGEPASISCRSSQSLENSNHNTYINWYLQKPGQSPQLLIYRVSKRFSGVPDRFSGSGSGTDFTLKISRVEAEDVGVYYCHQVTHVPYTFGQGTKLEIK
notes: human IgG1, kappa by its name
B15: WBP7011-4.87.6-z1-IgG1k (N-S) (antibody, V domains shown)
VH: QVQLVQSGAEVKKPGASVKVSCKASGYAFSTYWMNWVRQAPGQGLEWMGQIYPGDDDTKYSGKFKGRVTITADKSTSTAYMELSSLRSEDTAVYYCARRYFRYDYWYSDVWGQGTTVTVSS
VL: DIQMTQSPSSLSASVGDRVTITCRASQDISNYLNWYQQKPGKVPKLLIYYTSRLHSGVPSRFSGSGSGTDFTLTISSLQPEDVATYYCHQGNTLPLTFGQGTKLEIK
notes: human IgG1, kappa by its name

Each binder was assayed against T1, human CD19 (assay: cell-based or functional assay).

| Binder | EC50 of cell viability, Fab-Zap assay on Ramos cells (internalization) [nM] |
| --- | --- |
| B1 | 0.0148 |
| B2 | 0.0139 |
| B3 | 0.007 |
| B4 | 0.0136 |
| B5 | 0.0084 |
| B6 | 0.0206 |
| B7 | 0.0191 |
| B8 | 0.0117 |
| B9 | 0.0085 |
| B10 | 0.0276 |
| B11 | 0.0236 |
| B12 | 0.015 |
| B13 | 0.0085 |

The binders below were run against T1, human CD19 (assay: flow cytometry on Ramos cells).
Procedure: (§1) The Ramos cells were plated in 96-well U-bottom plates (BD) at a density of 1×10⁵ cells/well. The purified antibody were serially diluted in the staining buffer (1×PBS/1% BSA) and incubated with cells for 1 hr at 4° C. The cells were then washed twice with staining buffer (BSA/1×PBS). […] The cells were then washed twice and re-suspended in 100 μL staining buffer. The fluorescence intensity was measured by flow cytometry (BD Canto II) and analyzed by FlowJo.
Binding activity of the selected subclones were tested on Ramos cell by flow cytometry (FIG. 4).

| Binder | EC50 [nM] |
| --- | --- |
| B1 | 0.17 |
| B2 | 0.31 |
| B3 | 0.23 |
| B4 | 0.23 |
| B5 | 0.1 |
| B6 | 0.19 |
| B7 | 0.07 |
| B8 | 0.15 |
| B9 | 0.12 |
| B10 | 0.85 |
| B11 | 0.64 |
| B12 | 0.45 |
| B13 | 0.1 |

The binders below were run against T1, human CD19 (assay: FACS on Ramos cells, Scatchard analysis).
Procedure: KD was calculated using Scatchard Analysis.

| Binder | Kd [nM] |
| --- | --- |
| B14 | 0.23 |
| B15 | 0.25 |

What follows are binders tested against T2, cynomolgus monkey CD19 (assay: flow cytometry on cynomolgus CD19 transfected CHO-K1 cells).
Procedure: as §1, with “cynomolgus CD19 transfected CHO-K1” for “Ramos”
The binding activity to cynomogus monkey CD19 of candidate antibodies was evaluated using cynomolgus monkey CD19 transfected CHO-K1 cell line (FIG. 5).

| Binder | EC50 [nM] |
| --- | --- |
| B1 | 0.438 |
| B2 | 0.46 |
| B3 | 0.443 |
| B4 | 0.496 |
| B5 | 0.438 |
| B6 | 0.863 |
| B8 | 0.996 |
| B9 | 0.628 |
| B10 | 1.54 |
| B11 | 2.3 |
| B12 | 1.77 |
| B13 | 0.285 |

These binders were tested against T1, human CD19 (assay: flow cytometry on CD19 transfected CHO-K1 cells, Scatchard analysis).
Procedure: The CD19 transfected CHO-K1 cells or Ramos cells were plated in a 96-well plates (BD) at a density of 5×10⁴ cells/well. Antibodies to be tested were serially diluted in the staining buffer (1×PBS/1% BSA) and incubated with cells at 4° C. for 1 hr.
The affinity of selected candidate antibodies were tested on CD19 transfected CHO-K1 cell by flow cytometry.

| Binder | Kd [nM] |
| --- | --- |
| B1 | 0.213 |
| B2 | 0.17 |
| B3 | 0.181 |
| B4 | 0.231 |
| B5 | 0.118 |
| B6 | 0.252 |
| B8 | 0.42 |
| B9 | 0.17 |
| B10 | 0.949 |
| B11 | 0.847 |
| B12 | 0.735 |
| B13 | 0.0955 |
